For orientation: stoichiometry N means the number of molecules, sites or subunits per partner or assembly.

Data set [1] has as its target human BCL10 (full length), GST-tag removed (human) (UniProt O95999). The data set is described as follows: cryo-EM structure; helical filaments of BCL10 (full length)-MALT1 (T29-G722); complex at 1 mg/ml, PreScission protease overnight at 12 °C, filaments separated by SEC; core map at 4.9 Å, whole assembly at 5.9 Å. Background: SEC sorts molecules by how far they enter the pores of the column.

Data set [2] concerns the molecule itself. The description is as above.

In data set [1], “human MALT1 isoform B (T29-G722), in the filament sample after PreScission treatment (domain or fragment)” came in with a stoichiometry N of 1.

B1: human BCL10 (full length), GST-tag removed (natural protein, UniProt O95999 1-233, looked up)
chain: MEPTAPSLTEEDLTEVKKDALENLRVYLCEKIIAERHFDHLRAKKILSREDTEEISCRTSSRKRAGKLLDYLQENPKGLDTLVESIRREKTQNFLIQKITDEVLKLRNIKLEHLKGLKCSSCEPFPDGATNNLSRSNSDESNFSEKLRASTVMYHPEGESSTTPFFSTNSSLNLPVLEVGRTENTIFSSTTLPRPGDPGAPPLPPDLQLEEEGTCANSSEMFLPLRSRTVSRQ
notes: BCL10 (B cell lymphoma 10), human, full length; Forms helical filaments together with MALT1 (T29-G722); only residues 10-115 are modelled in the map; also called B cell lymphoma 10; BCL10 wt; not shown: GST, N-terminal, cleaved
Turning to B1, the binding result in data set [2] was “binds”.

Values taken from PMC6168461, “Molecular architecture and regulation of BCL10-MALT1 filaments” (Nature Communications, 2018).
